assay: soluble on expression in E. coli; label from the status in PepcDB or PDB records

| Sequence | soluble on expression in E. coli |
| --- | --- |
| MSLTKIAKVIVDVPLMQTDKPFSYKIPEALLSVITAGSRVHVPFGKGNRLLQGFVVSVDSGSAQHLKTIIDVLDVEPVLNQEQLELADQMRKTVFSYKISILKSMIPNLLNSNYDRLLKPKKGLSQEEKDLIFAGKKQINFSQLNQEIQTKSLSLIQAGKIDIEYLAKDRKTIKTQKCYDVNLEKLSHLLINKRAKKRQELKDYLANHPQSGPLSDLYRLFSREVVHYFIKEAVLNISQVEVNRTQSYFENIIQSDFLDLNPEQQTAVEQITAAIGSSNKPYLLEGITGSGKTEVYLHVIDQTLKLGKTAIVLVPEISLTPQMTSRFISRFGSQVAIMHSGLSDGEKFDEWRKMKSNQAKVVVGARSAIFSPLKNIGAIIIDEEHEATYKQESSPRYHAREVALLRAQYHQAVLVLGSATPSIESRARASRGVYNFLQLSQRANPQAHIPKVKIVDFRDYIGQQKVSNLTPVLLDKIKDRLIKKEQVVLMLNRRGYSSFIMCRDCGYVDNCPNCDISLTLHMDTKTMNCHYCGFLKGIPYNCPNCQSRQIRYYGTGTQKAYDELKQVLPEARILRMDVDTTKRKGAHEKILTKFGRHEADILLGTQMIAKGLDFPNVTLVGVLNADTSLNLPDFRSSERTFQLLTQVAGRAGRANKPGEVLIQTYNPNHYAIQLAREQDYEAFYRYEMRIRKALSYPPYYFTVGLTLSHKDEQEVIKKSYEIVTLIKEGLTDKIKILGPTPKPVARTHNLYHYQIIIKYRFEDQLEIVLNHILDLTQAKENKKLRLIIDHEPQSEGHHHHHH | soluble |
| KHLFDEIDTIDVMDVNAGDHGKKFATNFDPETNMLEIQGDSFYWENGEWKQVPCHSRMLEFEFPNCGSHKVYSMAHDEVRSMKEFIPAKRIEFWMGFGDRYLNYFNVMRDIGLLSPDPLTLHDGTVVQPLHVLKALLPDP | not soluble |
| MRIVVTRPQRSGERTAAKLEALGHAPVLLPLFHPIHHGERATSALSDPAGAIAVTSAEALRALATCEEQLAPYLSKPLFAVGGATAEAAQETGFEQIFTASGDALGLTVLVKQHRAFLTEEEPLLYLAGRPRGSVFEEGLAAAGIPFRTVDCYEMLPSDISENTLETTLLDTTADMVLLYSSEAARAFFHHVSADKYVTALAATKFICISRNVLFLVPEIFRANAKAAEEPSEAAMFELLHHNSGTLEHHHHHH | soluble |
| MSLCQEKEQDIQKEISYAEKHNNQRRIEGLNKALSEVRANCTDSKLRAEHQKKIAEQKEEVAERQRDLAEAKAKGDADKIDKRERKLAEAQDELKKLEHHHHHH | not soluble |
| EPKLDMNKQKISPAEVAKHNKPDDCWVVINGYVYDLTRFLPNHPGGQDVIKFNAGKDVTAIFEPLHAPNVIDKYIAPEKKLGPLQGSMPPELVCPPYAPGETKEDIARKEQLKSLLPPLDNIINLYDFEYLASQTLTKQAWAYYSSGANDEVTHRENHNAYHRIFFKPKILVDVRKVDISTDMLGSHVDVPFYVSATALCKLGNPLEGEKDVARGCGQGVTKVPQMISTLASCSPEEIIEAAPSDKQIQWYQLYVNSDRKITDDLVKNVEKLGVKALFVTVDAPSLGQREKDMKLKFSNTKAGPKAMKKTNVEESQGASRALSKFIDPSLTWKDIEELKKKTKLPIVIKGVQRTEDVIKAAEIGVSGVVLSNHGGRQLDFSRAPIEVLAETMPILEQRNLKDKLEVFVDGGVRRGTDVLKALCLGAKGVGLGRPFLYANSCYGRNGVEKAIEILRDEIEMSMRLLGVTSIAELKPDLLDLSTLKARTVGVPNDVLYNEVYEGPTLTEFEDA | soluble |
| MSLDVALAPPGPLASGGLRVTALGGISEIGRNMTIFEHLGRLLIIDCGVLFPGHDEPGVDLILPDLRHIEDRLDDIEALVLTHAHEDHIGAIPFLLKLRSDIPVVGSKFTLALVAAKCREHRIKPVFVEVVGGQSSRHGVFECEYFAVNHSIPDALTIAVYTGAGTVLHTGDIKLDQLPLDGRPTDLPGMSRLGDAGVDLFLCDSTNAEIPGVGPSESEVGPTLHRLIQGADGRVIVACFASNVDRVQQVIDAAVALGRRVSFVGRSMVRNMSIARDLGFLRVDDSHMIDIAAAEMMAPEQVVLITTGTQGEPMSALSRMSRGEHQSITLTSGDLVVLSSSLIPGNEEAVYGVIDALAKIGARVVTNAQARVHVSGHAYAGELLFLYNGVRPRQVMPVHGTEGHHHHHH | soluble |
| MGSDKIHHHHHHMDFIEVYPNAIPDELCDRLISTLEQHPGVVDGRTGNGVDIEKKLSRDLTLDSFADLIPLRNELLSHALKGTVEYFDKYSMALMGAVAVKVADNQGQPVTLNPDNYAELGHPRADALVKYLYRSGTINVQKYPKGKGGYPHWHSEQFPQAGHNEALHRVVLYMFYLNDVEEGGETEFFYQGRKLKPQKGTMVIAPAGFTHTHRGNVPVSGDKYIATSWVMFNRAEQLYVVG | not soluble |
| MAHHHHHHMDKLISNNKLKLSVVLLGGLCSLAYYHLKNKFHLSQFCFSKKWFSEFSIMWPGQAFSLKIKKILYETKSKYQNVLVFESTTYGKVLVLDGVIQLTEKDEFAYHEMMTHVPMTVSKEPKNVLVVGGGDGGIIRELCKYKSVENIDICEIDETVIEVSKIYFKNISCGYEDKRVNVFIEDASKFLENVTNTYDVIIVDSSDPIGPAETLFNQNFYEKIYNALKPNGYCVAQCESLWIHVGTIKNMIGYAKKLFKKVEYANISIPTYPCGCIGILCCSKTDTGLTKPNKKLESKEFADLKYYNYENHSAAFKLPAFLLKEIENI | soluble |
| MSLGEVCEIMQAYGGVSIVNALPSWYGSSMAINLKVKVEIREGKRVYSQESELIKTILNYFKEKYSIPDIEVDIESELPQKSGLKSSSAVSVALIAEIAKQYDLRNINPPILSAILSLKAGVSYTGALDDAVASYCGGIAFTYNKMFRIVKLENLEDNLSILILAKGGRQKPVNLNELRKYSHVFEEIFKIALKDYLTAMKMNGILIANILGYSLEPIEIALKKGALAAGISGNGPSYFAVSKNGEEGPIYESLKKFGDVIIVRPVSLDCKDLSIKEGHHHHHH | not soluble |
| MGSDKIHHHHHHGNLGKYSIYYAQNLPHETGTNSVMTAVFKHLGDVYIPYNSLDNDGNKMLETEDKTIHYQAGGMFSPTMITVKSTKDGDVLLSLQSDSQFPYCIYDFTENTYYGFNRAGTLVAEFIDSNTNVLSSHRVSALNTVNKLQNEMYGPIISHRKVPKINLQFIYNFVNEGKFK | not soluble |
| MAVKHKSESLKHEEGAAKKAKTGLLKLKKIMDIESNVVKYSICIPTTVIDNCNNLEQVTFTAYQIARTAVLFNVQEIIVLDQSKDKKHEKKSRSKETISDCLLLATLLQYFVTPPNLLDTTFKKKNKLYLKCASTFPPLNQLPFMNASAEQHYKEGLSIARDSSKGKSDDALTNLVYIGKNQIITLSNQNIPNTARVTVDTERKEVVSPIDAYKGKPLGYHVRMASTLNEVSEGYTKIVWVNSGDFHYDEELSKYHKVETKLPYIAKLKKSSTSEKPCNILLIFGKWGHLKRCFRRSDLESSSLHHYFSGQLQFPASVPQGNIPIQDSLPIALTMFQRWAS | soluble |
| MTHNGGRHLLEAVTLCGSILTRYKRSNMKLDEAEVRALKELFEKYQDILVDGSPGLPTHASGPMIQPPVTNMVAPYDSPTDTIVKFVEGTINLQRPIVEVLHVMNEHLSLVLRAKNTHVFYVDPVNNLLYDPIHGVAAALDESSPIGKAIVSGERLNVAGTLYIPIISEGMPLGCVLSPCGRADYHASTMLESSLRVISTSLKNIIQAEKLNWNKEKAEAMLRMATQLARDNLEETVLASSIMNTVKSLTESARCSLFLVRGDVLEAHFEDGNVVTIPRGAGIAGYVAQTGETVNIVDAYADDRFNREVDKATGYRTKTILCMPVMYEGTIVAVAQLINKLDLTTESGLRLPRVFGKRDEELFQTFSMFAGASLRNCRINDRLLKEKKKSDVILDVVTVLSNTDIRDVDGIVRHALHGAKKLLNADRSTLFLVDKERNELCSRMADSVAGKEIRFPCGQGIAGTVAASGVGENIQDAYQDPRFNREVDKQLGYRTQTILCEPIILNGEILAVVQLVNKLDTSGEVTVFTEDDRETFRVFSLFAGISINNSHLLEFAVKAGREVMELNEHRATLFNKNVPSRAVKRVTAITKVEREAVLVCELPSFDVTDVEFDLFRARESTDKPLDVAAAIAYRLLLGSGLPQKFGCSDEVLLNFILQCRKKYRNVPYHNFYHVVDVCQTIYTFLYRGNVYEKLTELECFVLLITALVHDLDHMGLNNSFYLKTESPLGILSSASGNTSVLEVHHCNLAVEILSDPESDVFGGLEGAERTLAFRSMIDCVLATDMAKHGSALEAFLASAADQSSDEAAFHRMTMEIILKAGDISNVTKPFDISRQWAMAVTEEFYRQGDMEKERGVEVLPMFDRSKNMELAKGQIGFIDFVAAPFFQKIVDACLQGMQWTVDRIKSNRAQWERVLETRLSTSSGNNSSTR | soluble |
